# Patent US20250223354A1 (BIOTHEUS, published 2025)
# T1: human TIGIT expressed on cells (human, UniProt Q495A1 22-244)
# T1 construct: whole, on cells; cDNA encoding human TIGIT in pCHO1.0 for CHO cells; also called CHO-huTIGIT cells
# T1 sequence (looked up): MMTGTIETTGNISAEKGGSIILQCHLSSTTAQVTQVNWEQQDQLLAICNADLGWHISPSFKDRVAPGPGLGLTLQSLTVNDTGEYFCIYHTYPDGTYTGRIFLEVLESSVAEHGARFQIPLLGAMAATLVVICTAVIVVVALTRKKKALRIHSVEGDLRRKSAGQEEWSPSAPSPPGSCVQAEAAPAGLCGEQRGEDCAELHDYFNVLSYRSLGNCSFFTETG
# T2: human TIGIT-his protein (human, UniProt Q495A1 22-141)
# T2 construct: not shown: his tag
# T2 sequence: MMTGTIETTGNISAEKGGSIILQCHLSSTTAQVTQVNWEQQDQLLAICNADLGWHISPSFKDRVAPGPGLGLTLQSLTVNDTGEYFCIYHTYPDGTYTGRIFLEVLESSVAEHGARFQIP
# T3: mouse PVRIG overexpressed on CHO cells (mouse, UniProt A0A1B0GS01 1-234)
# T3 construct: also called CHO-muPVRIG cells
# T3 sequence: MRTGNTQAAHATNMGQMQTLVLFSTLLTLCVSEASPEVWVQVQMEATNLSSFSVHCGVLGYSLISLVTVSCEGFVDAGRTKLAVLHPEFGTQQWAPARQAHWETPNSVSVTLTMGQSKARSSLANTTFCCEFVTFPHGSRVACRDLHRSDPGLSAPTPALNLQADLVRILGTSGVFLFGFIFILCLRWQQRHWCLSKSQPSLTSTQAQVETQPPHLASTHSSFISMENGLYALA
# T4: human PVRIG expressed on cells (human, UniProt Q6DKI7 41-326)
# T4 construct: whole, on cells; cDNA encoding human PVRIG in pCHO1.0 for CHO cells; also called CHO-huPVRIG cells
# T4 sequence (looked up): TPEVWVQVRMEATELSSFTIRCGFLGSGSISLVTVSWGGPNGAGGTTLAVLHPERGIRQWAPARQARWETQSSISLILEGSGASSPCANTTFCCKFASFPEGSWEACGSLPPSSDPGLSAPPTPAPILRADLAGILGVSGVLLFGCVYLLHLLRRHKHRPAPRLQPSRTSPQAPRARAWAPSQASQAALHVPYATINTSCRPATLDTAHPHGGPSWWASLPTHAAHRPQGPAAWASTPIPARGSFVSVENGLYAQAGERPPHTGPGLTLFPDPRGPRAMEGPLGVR
# T5: human PVRIG protein with mouse IgG2a Fc tag (human; mouse, UniProt Q6DKI7 41-171, limits assumed)
# T5 construct: Whole entry named; not shown: mouse IgG2a Fc tag
# T5 sequence (looked up): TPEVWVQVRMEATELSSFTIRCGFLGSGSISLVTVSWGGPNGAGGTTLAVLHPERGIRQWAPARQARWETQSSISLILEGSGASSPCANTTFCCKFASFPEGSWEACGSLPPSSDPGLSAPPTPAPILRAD
# T6: cynomolgus PVRIG overexpressed on CHO cells (cynomolgus, UniProt A0A2K5WVV8 1-322)
# T6 construct: whole, on cells; also called CHO-cynoPVRIG cells
# T6 sequence: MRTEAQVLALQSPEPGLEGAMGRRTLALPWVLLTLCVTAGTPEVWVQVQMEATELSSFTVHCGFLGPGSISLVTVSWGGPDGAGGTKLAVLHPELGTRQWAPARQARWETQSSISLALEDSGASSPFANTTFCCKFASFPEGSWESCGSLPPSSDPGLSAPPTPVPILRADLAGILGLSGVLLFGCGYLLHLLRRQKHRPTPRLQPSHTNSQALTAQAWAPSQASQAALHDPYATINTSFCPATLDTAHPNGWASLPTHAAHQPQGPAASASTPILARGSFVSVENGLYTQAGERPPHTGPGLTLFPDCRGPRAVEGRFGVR
# Columns and labels:
# [1] = target: T1, human TIGIT expressed on cells; assay: flow cytometry blocking assay: binding of human CD155 protein with mouse IgG2a Fc tag to CHO cells overexpressing human TIGIT, median fluorescence intensity APC-A; unit from the concentration axis
# Experimental: (§1) Specifically, the CHO-huTIGIT cells were expanded and adjusted to a cell density of 2×10⁶ cells/mL, added to a 96-well flow plate at 100 μL/well, and centrifuged for later use. The purified monoclonal antibodies were diluted 3-fold with PBS starting at 400 nM for a total of 12 concentration gradients. The diluted sample was added at 60 μL/well to the cells-carrying 96-well flow plate, and incubated at 4° C. for 30 minutes. […] APC-conjugated goat anti-mouse IgG antibody diluted 100-fold with PBS was added at 100 μL/well, incubated at 4° C. for 30 minutes, and washed twice with PBS. Cells were resuspended with PBS at 100 μL/well, and detected on a CytoFlex flow cytometer, and the corresponding MFI was calculated.
# [2] = target: T2, human TIGIT-his protein; assay: BLI (ForteBio), IgG on AHQ sensor, 100 nM TIGIT-his, monovalent, 1:1 model
# Experimental: (§2) Biofilm layer optical interference technology (ForteBio) was used to determine the binding and dissociation […] values of the anti-TIGIT monoclonal antibodies obtained in Example 1 to human, cynomolgus monkey and mouse TIGIT. Fortebio affinity measurements were performed according to existing methods (Este, P et al., High throughput solution-based measurement of antibody-antigen affinity and epitope binning. Mabs, 2013.5(2): p 270-8).
# (§3) The antibody-loaded sensor was incubated in 100 nM TIGIT-his antigen to the plateau phase, and then the sensor was transferred to an analysis buffer and incubated for at least 2 minutes for measuring dissociation rate. The kinetic analysis was performed using a 1:1 binding model.
# [3] = target: T7, cynomolgus monkey TIGIT-his protein (cynomolgus monkey); assay: as above
# T7 construct: also called Cynomolgus TIGIT-his; not shown: his tag
# Experimental: as §2, §3
# [4] = target: T1, human TIGIT expressed on cells; assay: flow cytometry on CHO cells overexpressing human TIGIT, median fluorescence intensity PE-A; unit from the concentration axis
# Source text: (§4) Specifically, CHO cells overexpressing human TIGIT (CHO-huTIGIT cells), CHO cells overexpressing cynomolgus TIGIT (CHO-cynoTIGIT cells) and CHO cells overexpressing mouse TIGIT (CHO-muTIGIT cells) were generated by transfection of the pCHO1.0 vector (purchased from Invitrogen) with cDNA encoding human TIGIT, cynomolgus TIGIT and mouse TIGIT cloned into the multiple cloning site (MCS), respectively, followed by pressure screening. The overexpressing cells were expanded and adjusted to an appropriate cell density, and added to a 96-well flow cytometry plate. After centrifugation, the cells were added with a gradiently diluted sample to be tested, and incubated at 4° C. for 30 minutes. The cells were washed twice with PBS, and added with a fluorescent secondary antibody correspondingly diluted to an appropriate concentration, then incubated at 4° C. for 30 minutes, and washed twice with PBS. Cells were resuspended with PBS, and detected on a CytoFlex flow cytometer, and the corresponding MFI was calculated. Graphpad software was used for graphical analysis to obtain EC₅₀ values.
# [5] = target: T8, cynomolgus TIGIT overexpressed on CHO cells (cynomolgus, UniProt A0A7N9I9V4 89-312); assay: flow cytometry on CHO cells overexpressing cynomolgus TIGIT, median fluorescence intensity PE-A; unit from the concentration axis
# T8 construct: whole, on cells; also called CHO-cynoTIGIT cells
# Source text: as §4
# [6] = target: T1, human TIGIT expressed on cells; assay: flow cytometry on activated human primary T cells (TIGIT), readout positive cell (%); unit from the concentration axis
# Source text: The binding activity of the anti-TIGIT antibody of the present invention to TIGIT on the surface of activated T cells was detected based on the flow cytometry detection method.
# Specifically, human PBMC were sorted according to the experimental protocol provided by […] Company (stemcell, Cat. No.: #17951C) to obtain human total T cells. […] The activated T cells were adjusted to an appropriate cell density and added to a 96-well flow cytometry plate. After centrifugation, the gradiently diluted sample to be tested was added, and incubated at 4° C. for 30 minutes. Washing was carried out twice with PBS, and a fluorescent secondary antibody diluted to an appropriate concentration was added, incubated at 4° C. for 30 minutes, and washed twice with PBS. […]
# [7] = target: T1, human TIGIT expressed on cells; assay: flow cytometry, CHO-huTIGIT cells
# Source text: as §4
# [8] = target: T1, human TIGIT expressed on cells; assay: flow cytometry, competition with human CD155-mouse IgG2a Fc (2 ug/mL) on CHO-huTIGIT cells
# Experimental: as §1
# [9] = target: T8, cynomolgus TIGIT overexpressed on CHO …; assay: flow cytometry, CHO-cynoTIGIT cells
# Source text: as §4
# [10] = target: T3, mouse PVRIG overexpressed on CHO cells; assay: flow cytometry, CHO-muPVRIG cells
# Experimental: (§5) The overexpressing cells were expanded and adjusted to an appropriate cell density, and added to a 96-well flow cytometry plate. After centrifugation, the cells were added with a gradiently diluted sample to be tested, and incubated at 4° C. for 30 minutes. The cells were washed twice with PBS, and added with a fluorescent secondary antibody correspondingly diluted to an appropriate concentration, then incubated at 4° C. for 30 minutes, and washed twice with PBS. Cells were resuspended with PBS, and detected on a CytoFlex flow cytometer, and the corresponding MFI was calculated. Graphpad software was used for graphical analysis to obtain EC₅₀ values.
# [11] = target: Biotin-labeled mouse PVRIG huFc protein (mouse); assay: competition ELISA: biotin mouse PVRIG-huFc binding to coated mouse CD112-his
# Experimental: Specifically, mouse CD112-his protein diluted with 1× coating buffer to a final concentration of 1 μg/mL was added to the ELISA plate at 100 μL/well, covered with the film, and coated overnight at 4° C. The coating solution in the ELISA plate was discarded, and the ELISA plate was washed three times with 1×PBST and was blocked with 5% BSA/PBS at 200 μL/well for 2 hours at room temperature. During the blocking period, the samples to be tested were gradient diluted with 1% BSA/PBS to a final volume of 60 μL/well. […] The blocking solution in the ELISA plate was discarded, and the above sample mixture was added at 100 μL/well and incubated for 2 hours at room temperature. The above co-incubated samples were discarded, the ELISA plate was washed three times with 1×PBST, and SA-HRP diluted with 1% BSA/PBS was added at 100 μL/well and incubated for 1 hour at room temperature. The SA-HRP dilution was discarded, the ELISA plate was washed three times with 1×PBST, ELISA Chromogen Solution was added at 100 μL/well and incubated for 1-3 minutes at room temperature, ELISA stopping solution was added at 50 μL/well and the absorbance values were read at 450 nm.
# [12] = target: T4, human PVRIG expressed on cells; assay: flow cytometry, CHO-huPVRIG cells
# Experimental: as §5
# [13] = target: T5, human PVRIG protein with mouse IgG2a Fc …; assay: flow cytometry, competition: human PVRIG-mouse IgG2a Fc (1 ug/mL) binding to CHO-huCD112 cells
# Experimental: Specifically, CHO cells overexpressing human CD112 (CHO-huCD112 cells) were generated by transfection of the pCHO1.0 vector (purchased from Invitrogen) with cDNA encoding human CD112 cloned into the multiple cloning site (MCS), respectively, followed by pressure screening. The CHO-huCD112 cells were expanded and adjusted to a cell density of 2×10⁶ cells/mL, added to a 96-well flow plate at 100 μL/well, and centrifuged for later use. The purified monoclonal antibody was gradient diluted with PBS and the diluted sample was added to a blank 96-well flow plate at 60 μL/well. […] The above incubated samples were added at 100 μL/well to the 96-well flow plate containing CHO-huCD112 cells, incubated at 4° C. for 30 min and washed twice with PBS. APC-conjugated goat anti-mouse IgG antibody diluted 100-fold with PBS was added at 100 μL/well, incubated at 4° C. for 30 minutes and washed twice with PBS. Cells were resuspended with PBS at 100 μL/well, and detected on a CytoFlex flow cytometer, and the corresponding MFI was calculated.
# [14] = target: T6, cynomolgus PVRIG overexpressed on CHO …; assay: flow cytometry, CHO-cynoPVRIG cells
# Experimental: as §5
# T8 sequence (A0A7N9I9V4 entry or part of it): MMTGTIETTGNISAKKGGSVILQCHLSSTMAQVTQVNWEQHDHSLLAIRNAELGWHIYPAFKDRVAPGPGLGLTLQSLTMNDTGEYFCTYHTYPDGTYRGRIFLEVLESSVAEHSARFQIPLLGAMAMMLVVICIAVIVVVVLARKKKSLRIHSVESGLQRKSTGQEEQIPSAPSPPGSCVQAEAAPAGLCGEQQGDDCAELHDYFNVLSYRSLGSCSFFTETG
# T7 sequence (chain, as listed by the source): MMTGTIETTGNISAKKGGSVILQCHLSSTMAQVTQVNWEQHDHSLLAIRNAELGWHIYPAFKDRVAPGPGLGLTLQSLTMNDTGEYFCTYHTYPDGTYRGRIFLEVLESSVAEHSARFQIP
IC50 [1],Kd [2],Kd [3],EC50 [4],EC50 [5],EC50 [6],EC50 [7],IC50 [8],EC50 [9],EC50 [10],IC50 [11],EC50 [12],IC50 [13],EC50 [14],Binder
0.634 nM,0.87 nM,3.5 nM,1.34 nM,4.18 nM,0.274 nM,1.35 nM,0.63 nM,4.18 nM,,,,,,"Tiragolumab (antibody, V domains shown) VH: EVQLQQSGPGLVKPSQTLSLTCAISGDSVSSNSAAWNWIRQSPSRGLEWLGKTYYRFKWYSDYAVSVKGRITINPDTSKNQFSLQLNSVTPEDTAVFYCTRESTTYDLLAGPFDYWGQGTLVTVSS VL: not shown"
,,,,,,,,,6.47 nM,1.57 nM,2.51 nM,1.23 nM,1.96 nM,"anti-PVRIG monoclonal antibody ADI-56127-G1 (antibody, human IgG1, V domains shown, Wild-type human IgG1 heavy chain constant region, human kappa light chain constant region; HEK293) VH: QVQLVQSGAEVKKPGSSVKVSCKASGGTESVDAISWVRQAPGQGLEWMGDIIPFFDTDYAQKFQGRVTITADESTSTAYMELSSLRSEDTAVYYCAREGGTSWTHFFDLWGRGTLVTVSS VL: not shown"
,,,,,,,,,5.38 nM,1.78 nM,2.44 nM,1.36 nM,1.98 nM,"anti-PVRIG monoclonal antibody ADI-56127-G1LALA (antibody, human IgG1, V domains shown, Human IgG1 heavy chain constant region modified by L234A, L235A; human kappa light chain constant region; HEK293) VH: QVQLVQSGAEVKKPGSSVKVSCKASGGTESVDAISWVRQAPGQGLEWMGDIIPFFDTDYAQKFQGRVTITADESTSTAYMELSSLRSEDTAVYYCAREGGTSWTHFFDLWGRGTLVTVSS VL: not shown"
